The values that follow come from PMC5907806 (Nature, 2017).

For series [1], the target named is Rpb2 subunit of S. cerevisiae RNA polymerase II (S. cerevisiae, UniProt P08518 1-1224). Put plainly: cryo-EM structure.
Series [2] concerns the target T1, RNA polymerase II (12-subunit);Rad26 (Saccharomyces cerevisiae;Saccharomyces …, UniProt P04050;P08518;P16370;P20433;P20434;P20435;P34087;P20436;P27999;P22139;P38902;P40 …, |). Put plainly: EMSA.
Series [3] concerns the target T1, RNA polymerase II (12-subunit);Rad26. Briefly: EMSA. This is another data set of the same source.
Series [4] has the same target. Put plainly: EMSA. The source holds these as a separate data set.
The target is the same in series [5]. Put plainly: EMSA. The source holds these as a separate data set.
The target is the same in series [6]. Put plainly: EMSA. This is another data set of the same source.
Series [7] shares this target. Put plainly: EMSA. This is another data set of the same source.

Like-named read-outs stand apart in the source and are kept apart here.

Rpb2 subunit of S. cerevisiae RNA polymerase II, sequence (P08518 whole entry): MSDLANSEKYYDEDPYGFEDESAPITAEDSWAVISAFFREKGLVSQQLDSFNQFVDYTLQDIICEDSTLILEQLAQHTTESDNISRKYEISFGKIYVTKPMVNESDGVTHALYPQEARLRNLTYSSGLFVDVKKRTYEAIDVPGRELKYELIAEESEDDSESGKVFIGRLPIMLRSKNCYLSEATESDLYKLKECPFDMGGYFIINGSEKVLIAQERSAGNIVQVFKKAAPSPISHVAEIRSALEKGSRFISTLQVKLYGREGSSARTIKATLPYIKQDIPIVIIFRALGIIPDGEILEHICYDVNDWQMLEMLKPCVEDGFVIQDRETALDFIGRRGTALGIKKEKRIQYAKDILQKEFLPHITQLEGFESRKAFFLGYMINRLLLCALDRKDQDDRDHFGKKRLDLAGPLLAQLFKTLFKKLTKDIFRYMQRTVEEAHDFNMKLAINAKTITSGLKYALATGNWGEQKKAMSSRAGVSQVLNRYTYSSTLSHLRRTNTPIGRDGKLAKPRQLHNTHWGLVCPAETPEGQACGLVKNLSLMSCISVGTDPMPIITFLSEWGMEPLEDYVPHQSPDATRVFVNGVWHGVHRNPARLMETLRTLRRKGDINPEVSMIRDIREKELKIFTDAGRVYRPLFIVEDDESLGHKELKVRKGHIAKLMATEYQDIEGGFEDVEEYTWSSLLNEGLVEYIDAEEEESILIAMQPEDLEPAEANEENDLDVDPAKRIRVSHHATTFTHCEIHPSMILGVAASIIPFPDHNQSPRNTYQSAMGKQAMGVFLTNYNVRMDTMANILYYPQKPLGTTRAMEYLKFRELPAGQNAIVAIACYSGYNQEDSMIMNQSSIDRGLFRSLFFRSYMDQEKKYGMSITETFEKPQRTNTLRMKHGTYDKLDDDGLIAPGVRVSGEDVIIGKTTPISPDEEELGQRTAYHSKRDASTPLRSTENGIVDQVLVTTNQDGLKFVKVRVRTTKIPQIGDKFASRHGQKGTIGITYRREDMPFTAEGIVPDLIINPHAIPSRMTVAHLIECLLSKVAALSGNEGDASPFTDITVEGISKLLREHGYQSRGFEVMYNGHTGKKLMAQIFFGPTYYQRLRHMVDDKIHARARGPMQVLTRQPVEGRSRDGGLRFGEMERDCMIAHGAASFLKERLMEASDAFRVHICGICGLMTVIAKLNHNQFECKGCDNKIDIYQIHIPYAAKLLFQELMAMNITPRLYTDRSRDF

B1: Saccharomyces cerevisiae Rad26 (natural protein, S. cerevisiae, UniProt P40352 1-1085, looked up)
chain: MEDKEQQDNAKLENNESLKDLGVNVLSQSSLEEKIANDVTNFSNLQSLQQEETRLERSKTALQRYVNKKNHLTRKLNNTTRISVKQNLRDQIKNLQSDDIERVLKDIDDIQSRIKELKEQVDQGAENKGSKEGLQRPGETEKEFLIRTGKITAFGHKAGFSLDTANREYAKNDEQKDEDFEMATEQMVENLTDEDDNLSDQDYQMSGKESEDDEEEENDDKILKELEDLRFRGQPGEAKDDGDELYYQERLKKWVKQRSCGSQRSSDLPEWRRPHPNIPDAKLNSQFKIPGEIYSLLFNYQKTCVQWLYELYQQNCGGIIGDEMGLGKTIQVIAFIAALHHSGLLTGPVLIVCPATVMKQWCNEFQHWWPPLRTVILHSMGSGMASDQKFKMDENDLENLIMNSKPSDFSYEDWKNSTRTKKALESSYHLDKLIDKVVTDGHILITTYVGLRIHSDKLLKVKWQYAVLDEGHKIRNPDSEISLTCKKLKTHNRIILSGTPIQNNLTELWSLFDFIFPGKLGTLPVFQQQFVIPINIGGYANATNIQVQTGYKCAVALRDLISPYLLRRVKADVAKDLPQKKEMVLFCKLTKYQRSKYLEFLHSSDLNQIQNGKRNVLFGIDILRKICNHPDLLDRDTKRHNPDYGDPKRSGKMQVVKQLLLLWHKQGYKALLFTQSRQMLDILEEFISTKDPDLSHLNYLRMDGTTNIKGRQSLVDRFNNESFDVFLLTTRVGGLGVNLTGANRIIIFDPDWNPSTDMQARERAWRIGQKREVSIYRLMVGGSIEEKIYHRQIFKQFLTNRILTDPKQKRFFKIHELHDLFSLGGENGYSTEELNEEVQKHTENLKNSKSEESDDFEQLVNLSGVSKLESFYNGKEKKENSKTEDDRLIEGLLGGESNLETVMSHDSVVNSHAGSSSSNIITKEASRVAIEAVNALRKSRKKITKQYEIGTPTWTGRFGKAGKIRKRDPLKNKLTGSAAILGNITKSQKEASKEARQENYDDGITFARSKEINSNTKTLENIRAYLQKQNNFFSSSVSILNSIGVSLSDKEDVIKVRALLKTIAQFDKERKGWVLDEEFRNNNAS
With B1, in series [1], the binding result is “binds”.

B2: non-damaged TT scaffold (mixed)
DNA 1: CGAGCAGATCTCATAGCCCATTCCTACTAAGGAGAAGGAGCAGAGCG
DNA 2: CGCTCTGCTCCTTCTCCTTTCCTCTCGATGGCTATGAGATCTGCTCG
RNA: AUCGAGAGGA
For the molecule B2, the binding result in series [2] is given as “binds”.

B3: 3+10+3 bubble scaffold (mixed)
DNA 1: CGAGCAGATCTCATATTTCATTCCTACTCATGAGAAGGAGCAGAGCG
DNA 2: CGCTCTGCTCCTTCTCCCATCCTCTCGATGGCTATGAGATCTGCTCG
RNA: AUCGAGAGGA
On to B3, for which the binding result in series [3] was “binds”.

B4: 10+3 bubble scaffold (mixed)
DNA 1: CGAGCAGATCTCATAGCCCATTCCTACTCATGAGAAGGAGCAGAGCG
DNA 2: CGCTCTGCTCCTTCTCCCATCCTCTCGATGGCTATGAGATCTGCTCG
RNA: AUCGAGAGGA
B4: the binding result in series [4] was “binds”.

B5: AT-rich upstream fork scaffold (mixed)
DNA 1: CGAGCAGATCTCATATTTCATTCCTACTTGGGAGAAGGAGCAGAGCG
DNA 2: CGCTCTGCTCCTTCTCCCATCCTCTCGATAAATATGAGATCTGCTCG
RNA: AUCGAGAGGA
In the case of B5, in series [5], the binding result was “binds”.

B6: CPD lesion scaffold (mixed)
DNA 1: CGAGCAGATCTCATAGCCCATTCCTACTAAGGAGAAGGAGCAGAGCG
DNA 2: CGCTCTGCTCCTTCTCCTTTCCTCTCGATGGCTATGAGATCTGCTCG
RNA: AUCGAGAGGA
modifications: CPD at TT of TS (nt 18-19)
Regarding B6, in series [6], the binding result is on record as “binds”.

B7: 3+10 bubble scaffold (mixed)
DNA 1: CGAGCAGATCTCATATTTCATTCCTACTTGGGAGAAGGAGCAGAGCG
DNA 2: CGCTCTGCTCCTTCTCCCATCCTCTCGATGGCTATGAGATCTGCTCG
RNA: AUCGAGAGGA
Regarding B7, the binding result in series [7] was “binds”.
